Source: US12448462 (dated 2025)
Read-outs that look alike come from different tables or passages of the source.

How the values were obtained:
[1] = target: T1, MUC1 (MUC1-C) on cells (UniProt P15941 24-1255); experiment: flow
[2] = target: T1, MUC1 (MUC1-C) on cells; experiment: flow; remark: listed apart in the source

B1: T4E3 scFv-Fc (Fc fusion)
VH: QVQLVQSGGGLVQPGGSLRLSCAASGFTFDDYAMHWVRQAPGKGLEWVSGISWNSGSIGYADSVKGRFTISRDNAKNSLYLQMNSLRAEDTALYYCAKDIGSGSYYNYYYGMDVWGQGTTATISS
VL: SSELTQDPAVSVALGQTVRITCQGDSLRSYYASWYQQKPGQAPVLVIYGKNSRPSGIPDRFSGSNSGSTASLTITGAQAEDEADYYCNSRDRYGNSLVIFGGGTKLTVL
EC50 [1]: 0.033 µg/mL | EC50 [2]: 0.033 µg/mL
